Test results taken from patent US20140294825A1 (JN BIOSCIENCES, published 2014).
Each block holds one binder with its values, some of them ahead of it.

Legend:
human FcRn [1] = target: T1, human FcRn (human, UniProt P55899 24-365; P61769 21-119); test: flow cytometry on NS0 cells expressing human FcRn, 1 µg/ml antibody, pH 6.0 and 7.5
T1 construct: whole, on cells; Heterodimer stably expressed on the surface of NS0 cells; also called neonatal Fc receptor; NS0/FcRn cells
Method: (§1) The ability of Ch9G6-IgG1, Ch9G6-IgG1/M and Ch9G6-MVIgG1 antibodies to bind to FcRn in a pH-dependent manner was analyzed by flow cytometry using NS0 cells expressing human FcRn on the cell surface (NS0/FcRn cells). NS0/FcRn transfectants stably expressing human FcRn, a heterodimer composed of the FcRn α chain and β2-microglubulin, on the cell surface was generated following the general procedure described by Hinton et al. (J. Biol. Chem. 279:6213-6216 2004), which is incorporated herein by reference. Ch9G6-IgG1, Ch9G6-IgG1/M and Ch9G6-MVIgG1 at 1 μg/ml were separately incubated with NS0/FcRn cells at pH 6.0 and 7.5 at the primary staining step following the procedure described by Hinton et al. (supra). Antibodies binding to FcRn were detected using PE-labeled goat polyclonal anti-human gamma chain antibody (for Ch9G6-IgG1 and no antibody control) or PE-labeled goat polyclonal anti-human μ chain antibody (for Ch9G6-IgG1/M, Ch9G6-MVIgG1 and no antibody control) at the secondary staining step.
(§2) The ability of Ch9G6-IgG3D, Ch9G6-IgG3D/M and Ch9G6-MVIgG3D antibodies to bind to FcRn in a pH-dependent manner was analyzed by flow cytometry using NS0 cells expressing human FcRn on the cell surface (NS0/FcRn cells). Ch9G6-IgG3D, Ch9G6-Ig3D/M and Ch9G6-MVIgG3D at 1 μg/ml were separately incubated with NS0/FcRn cells at pH 6.0 and 7.5 at the primary staining step as described in Example 4. Antibodies binding to FcRn were detected using PE-labeled goat polyclonal anti-human gamma chain antibody (for Ch9G6-IgG3D and no antibody control) or PE-labeled goat polyclonal anti-human μ chain antibody (for Ch9G6-IgG3D/M, Ch9G6-MVIgG3D and no antibody control) at the secondary staining step.

[2] = target: T2, recombinant human CD30 extracellular region fused at the C-terminus to the human λ2 constant region (human); test: bridging ELISA: CD79a-Fc coated, supernatant, then CD30-Cλ in solution, anti-human λ chain HRP detection; no signal means the anti-CD79a antibody did not hold CD30-Cλ
T2 construct: Cysteine at the second position from the carboxyl terminus of the constant region changed to serine; also called CD30-Cλ

[3] = target: T3, recombinant human CD30 extracellular region fused at the C-terminus to the Fc region of human γ1 chain (human); test: bridging ELISA: CD30-Fc coated, supernatant, then CD79a-Cλ in solution, anti-human λ chain HRP detection; no signal means the anti-CD79a antibody was not captured on CD30-Fc
T3 construct: also called CD30-Fc

human CD16 = target: T4, human CD16 (human, UniProt P08637 17-254); test: flow cytometry on HEK293 cells transiently expressing human CD16, PE anti-human µ heavy chain detection
T4 construct: whole, on cells; also called Fcγ receptor type III

Protein G = target: T5, Protein G (Streptococcal, UniProt P19909 303-497); test: Protein G Sepharose column, culture supernatant
T5 construct: Commercial resin; also called Protein G Sepharose column

human FcRn [4] = target: T1, human FcRn; test: flow cytometry on NS0 cells expressing human FcRn, pH 6.0 and 7.5, PE anti-human µ chain detection
Method: as §1, with “Ch9G6-IgG1, Ch9G6-IgG1/M and Ch9G6-MVIgG1 at 1 μg/ml were separately incubated with NS0/FcRn cells at pH 6.0 and 7.5 at the primary staining step following the procedure described by Hinton et al. (supra).” left out
as §2, with “Ch9G6-IgG3D, Ch9G6-Ig3D/M and Ch9G6-MVIgG3D at 1 μg/ml were separately incubated with NS0/FcRn cells at pH 6.0 and 7.5 at the primary staining step as described in Example 4.” left out

T4 sequence (P08637 17-254): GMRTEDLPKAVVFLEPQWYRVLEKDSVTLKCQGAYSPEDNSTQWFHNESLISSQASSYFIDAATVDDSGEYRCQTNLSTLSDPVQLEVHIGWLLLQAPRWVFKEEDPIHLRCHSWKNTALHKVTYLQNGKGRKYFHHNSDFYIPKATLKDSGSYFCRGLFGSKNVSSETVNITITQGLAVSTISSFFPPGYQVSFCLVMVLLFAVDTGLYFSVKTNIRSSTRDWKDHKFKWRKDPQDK
T2 sequence (chain, as listed by the source limits assumed): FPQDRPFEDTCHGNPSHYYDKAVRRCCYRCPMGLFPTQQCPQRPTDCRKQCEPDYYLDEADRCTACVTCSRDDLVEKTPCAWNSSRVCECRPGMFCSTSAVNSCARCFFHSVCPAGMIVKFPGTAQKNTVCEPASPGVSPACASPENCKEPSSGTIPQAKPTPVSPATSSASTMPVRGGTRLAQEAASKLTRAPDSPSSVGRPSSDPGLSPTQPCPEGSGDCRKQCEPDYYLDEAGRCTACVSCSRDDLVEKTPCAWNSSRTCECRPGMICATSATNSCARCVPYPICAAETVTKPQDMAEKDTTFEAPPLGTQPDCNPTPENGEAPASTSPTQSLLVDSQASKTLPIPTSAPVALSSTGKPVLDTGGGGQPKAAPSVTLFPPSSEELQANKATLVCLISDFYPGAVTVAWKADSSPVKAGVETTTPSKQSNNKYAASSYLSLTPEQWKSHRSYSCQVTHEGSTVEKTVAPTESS
T5 sequence (P19909 303-497): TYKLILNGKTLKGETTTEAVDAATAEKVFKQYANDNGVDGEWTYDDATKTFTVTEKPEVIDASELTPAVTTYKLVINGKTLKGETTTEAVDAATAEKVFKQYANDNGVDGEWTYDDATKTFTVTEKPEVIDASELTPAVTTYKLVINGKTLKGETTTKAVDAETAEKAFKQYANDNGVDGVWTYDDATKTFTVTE
T3 sequence (chain, as listed by the source limits assumed): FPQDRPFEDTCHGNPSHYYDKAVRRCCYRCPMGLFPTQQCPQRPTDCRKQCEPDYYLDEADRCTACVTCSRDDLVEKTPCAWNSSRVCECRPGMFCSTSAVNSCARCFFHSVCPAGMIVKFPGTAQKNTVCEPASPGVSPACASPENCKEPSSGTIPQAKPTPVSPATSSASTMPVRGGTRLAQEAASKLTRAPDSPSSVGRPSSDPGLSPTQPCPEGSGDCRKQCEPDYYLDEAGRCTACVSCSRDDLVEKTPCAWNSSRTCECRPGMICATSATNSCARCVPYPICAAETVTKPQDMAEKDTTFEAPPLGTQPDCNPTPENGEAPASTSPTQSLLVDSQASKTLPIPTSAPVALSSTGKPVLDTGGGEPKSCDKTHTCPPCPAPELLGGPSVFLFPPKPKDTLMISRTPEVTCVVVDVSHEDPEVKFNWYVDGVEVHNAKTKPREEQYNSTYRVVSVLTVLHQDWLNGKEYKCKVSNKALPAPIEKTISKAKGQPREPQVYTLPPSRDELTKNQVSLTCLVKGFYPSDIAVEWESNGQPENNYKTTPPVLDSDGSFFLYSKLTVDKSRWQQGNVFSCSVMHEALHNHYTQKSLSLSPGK

B1: Ch9G6-MVIgG3D (antibody)
heavy: QVQLQQSGPELVKPGASVKISCKASGYTFSTSWMNWVKQRPGQGLEWIGRIYPGDGDTNYNGKFKGKATLTADKSSNTAYMQLSSLTSVDSAVYFCERFYYGNTFAMDYWGQGTSVTVSSASTKGPSVFPLAPCSRSTSGGTAALGCLVKDYFPEPVTVSWNSGALTSGVHTFPAVLQSSGLYSLSSVVTVPSSSLGTQTYTCNVNHKPSNTKVDKRVEPKSCDTPPPCPRCPAPELLGGPSVFLFPPKPKDTLMISRTPEVTCVVVDVSHEDPEVQFKWYVDGVEVHNAKTKPREEQYNSTFRVVSVLTVLHQDWLNGKEYKCKVSNKALPAPIEKTISKTKGQPREPQVYTLPPSREEMTKNQVSLTCLVKGFYPSDIAVEWESSGQPENNYNTTPPMLDSDGSFFLYSKLTVDKSRWQQGNIFSCSVMHEALHNRFTQKSLSLSPGKDQDTAIRVFAIPPSFASIFLTKSTKLTCLVTDLTTYDSVTISWTRQNGEAVKTHTNISESHPNATFSAVGEASICEDDWNSGERFTCTVTHTDLPSPLKQTISRPKGVALHRPDVYLLPPAREQLNLRESATITCLVTGFSPADVFVQWMQRGQPLSPEKYVTSAPMPEPQAPGRYFAHSILTVSEEEWNTGETYTCVVAHEALPNRVTERTVDKSTGKPTLYNVSLVMSDTAGTCY
light: DVLMTQIPLSLPVSLGDQASISCRSSQSIVHSNGNTYLEWYLQKPGQSPKLLIYKVSNRFSGVPDRFSGSGSGTDFTLKISRVEAEDLGVYYCFQGSHVPFTFGSGTKLEIKRTVAAPSVFIFPPSDEQLKSGTASVVCLLNNFYPREAKVQWKVDNALQSGNSQESVTEQDSKDSTYSLSSTLTLSKADYEKHKVYACEVTHQGLSSPVTKSFNRGEC
notes: Pentamer or hexamer of the H2L2 unit in native form (NS0 cells, Protein G purified); also called multivalent IgG3 antibody
- binding result (human FcRn [1]): binds

B3: Ch9G6-IgG1 (antibody)
heavy: not shown
light: B1 light
notes: also called chimeric IgG1 form of the mouse anti-human CD79a monoclonal antibody 9G6
- binding result (human FcRn [1]): binds

B4: Ch9G6-IgG3D (antibody)
heavy: QVQLQQSGPELVKPGASVKISCKASGYTFSTSWMNWVKQRPGQGLEWIGRIYPGDGDTNYNGKFKGKATLTADKSSNTAYMQLSSLTSVDSAVYFCERFYYGNTFAMDYWGQGTSVTVSSASTKGPSVFPLAPCSRSTSGGTAALGCLVKDYFPEPVTVSWNSGALTSGVHTFPAVLQSSGLYSLSSVVTVPSSSLGTQTYTCNVNHKPSNTKVDKRVEPKSCDTPPPCPRCPAPELLGGPSVFLFPPKPKDTLMISRTPEVTCVVVDVSHEDPEVQFKWYVDGVEVHNAKTKPREEQYNSTFRVVSVLTVLHQDWLNGKEYKCKVSNKALPAPIEKTISKTKGQPREPQVYTLPPSREEMTKNQVSLTCLVKGFYPSDIAVEWESSGQPENNYNTTPPMLDSDGSFFLYSKLTVDKSRWQQGNIFSCSVMHEALHNRFTQKSLSLSPGK
light: B1 light
notes: NS0 cells, Protein G purified; monomer of about 150 kDa; also called chimeric anti-CD79a IgG3 monoclonal antibody (first, second and third hinge regions eliminated)
- binding result (human FcRn [1]): binds

Results, then the binder that gave them:

- binding result [2]: no binding
- binding result (human FcRn [1]): binds
- binding result [3]: no binding
B2: Ch9G6-MVIgG1 (antibody)
heavy: not shown
light: B1 light
notes: also called multivalent anti-CD79a IgG1 antibody

- binding result (human CD16): no binding (tested: 1 µg/ml)
- binding result (Protein G): no binding
- binding result (human FcRn [4]): no binding (tested: 1 µg/ml)
B5: Ch9G6-IgG3D/M (antibody)
heavy: QVQLQQSGPELVKPGASVKISCKASGYTFSTSWMNWVKQRPGQGLEWIGRIYPGDGDTNYNGKFKGKATLTADKSSNTAYMQLSSLTSVDSAVYFCERFYYGNTFAMDYWGQGTSVTVSSASTKGPSVFPLAPCSRSTSGGTAALGCLVKDYFPEPVTVSWNSGALTSGVHTFPAVLQSSGLYSLSSVVTVPSSSLGTQTYTCNVNHKPSNTKVDKRVEPKSCDTPPPCPRCPDQDTAIRVFAIPPSFASIFLTKSTKLTCLVTDLTTYDSVTISWTRQNGEAVKTHTNISESHPNATFSAVGEASICEDDWNSGERFTCTVTHTDLPSPLKQTISRPKGVALHRPDVYLLPPAREQLNLRESATITCLVTGFSPADVFVQWMQRGQPLSPEKYVTSAPMPEPQAPGRYFAHSILTVSEEEWNTGETYTCVVAHEALPNRVTERTVDKSTGKPTLYNVSLVMSDTAGTCY
light: B1 light
notes: NS0 cells, purified on anti-human IgM agarose; mixture of species (650, 180, 90 kDa peaks); also called Ch9G6-Ig3D/M
